Measurements as given in patent US20230265151A1, “GIP/GLP1 CO-AGONIST COMPOUNDS” (priority 2020, published 2023).

T1: human GIP receptor (human, UniProt P48546 22-466)
T1 sequence (looked up): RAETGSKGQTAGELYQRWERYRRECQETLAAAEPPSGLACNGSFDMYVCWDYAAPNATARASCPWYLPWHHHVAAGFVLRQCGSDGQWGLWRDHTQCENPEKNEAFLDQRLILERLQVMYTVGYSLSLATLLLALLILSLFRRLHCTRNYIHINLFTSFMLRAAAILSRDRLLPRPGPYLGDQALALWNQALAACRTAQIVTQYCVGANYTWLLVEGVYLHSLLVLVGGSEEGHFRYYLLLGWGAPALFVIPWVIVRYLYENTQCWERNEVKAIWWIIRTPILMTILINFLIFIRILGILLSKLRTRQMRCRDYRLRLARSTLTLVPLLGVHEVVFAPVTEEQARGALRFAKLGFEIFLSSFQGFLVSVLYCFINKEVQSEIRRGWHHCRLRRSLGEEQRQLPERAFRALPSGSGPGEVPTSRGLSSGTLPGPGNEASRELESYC

B1: Example 56 (peptide)
peptide: YXEGTXTSDXSIXLDXKAQXEFIXXLIEGGKSSGAPPPS
modifications: Aib2, αMeF(2F)6, 1Nal10, αMeL13, Orn16, Aib20, D-Glu24, αMeY25, K17 and K31: K(AEEA2-(γ-Glu)-CO-(CH2)12-CO2H), C-terminal NH2
B2: Example 47 (peptide)
peptide: YXEGTXTSDXSIXLDXKAQXEXIXXLIEGGKSSGAPPPS
modifications: Aib2, αMeF6, 4Pal10, αMeL13, Orn16, Aib20, αMeF22, D-Glu24, αMeY25, K17 and K31: K(AEEA2-(γ-Glu)-CO-(CH2)12-CO2H), C-terminal NH2
B3: Example 35 (peptide)
peptide: YXEGTXTSDXSIXLDXKAQXEFIXXLIEGGKSSGAPPPS
modifications: Aib2, αMeF(2F)6, 4Pal10, αMeL13, Orn16, Aib20, D-Glu24, αMeY25, K17 and K31: K(AEEA-(εK)-(γ-Glu)-CO-(CH2)12-CO2H), C-terminal NH2
B4: Example 66 (peptide)
peptide: YXEGTXTSDXSIXLDXKAQXEXIXXLIEGGKSSGAPPPS
modifications: Aib2, αMeF(2F)6, 4Pal10, αMeL13, Orn16, Aib20, 1Nal22, D-Glu24, αMeY25, K17 and K31: K(AEEA2-(γ-Glu)-CO-(CH2)12-CO2H), C-terminal NH2
B5: Example 49 (peptide)
peptide: YXEGTXTSDYXIXLDXKAQXEFIXXLIEGGKSSGAPPPS
modifications: Aib2, αMeF(2F)6, αMeS11, αMeL13, Orn16, Aib20, D-Glu24, αMeY25, K17 and K31: K(AEEA2-(γ-Glu)-CO-(CH2)12-CO2H), C-terminal NH2
B6: Example 63 (peptide)
peptide: YXEGTXTSDXSIXLDXKAQXEXIXXLIEGGKSSGAPPPS
modifications: Aib2, αMeF(2F)6, 4Pal10, αMeL13, Orn16, Aib20, 2FPhe22, D-Glu24, αMeY25, K17 and K31: K(AEEA2-(γ-Glu)-CO-(CH2)12-CO2H), C-terminal NH2
B7: Example 7 (peptide)
peptide: YXEGTXTSDXSIXLDXKAQXEFIXXLIEGGKSSGAPPPS
modifications: Aib2, αMeF(2F)6, 4Pal10, αMeL13, Orn16, Aib20, D-Glu24, αMeY25, K17 and K31: K(AEEA2-(γ-Glu)-CO-(CH2)14-CH3), C-terminal NH2
B8: Example 58 (peptide)
peptide: YXEGTXTSDXSIXLDXKAQXEFIXXLIEGGKSSGAPPPS
modifications: Aib2, αMeF(2F)6, OMeY10, αMeL13, Orn16, Aib20, D-Glu24, αMeY25, K17 and K31: K(AEEA2-(γ-Glu)-CO-(CH2)12-CO2H), C-terminal NH2
B9: Example 55 (peptide)
peptide: YXEGTXTSDXSIXLDXKAQXEFIXXLIEGGKSSGAPPPS
modifications: Aib2, αMeF(2F)6, Bip10, αMeL13, Orn16, Aib20, D-Glu24, αMeY25, K17 and K31: K(AEEA2-(γ-Glu)-CO-(CH2)12-CO2H), C-terminal NH2
B10: Example 54 (peptide)
peptide: YXEGTXTSDXSIXLDXKAQXEFIXXLIEGGKSSGAPPPS
modifications: Aib2, αMeF(2F)6, Ac6c10, αMeL13, Orn16, Aib20, D-Glu24, αMeY25, K17 and K31: K(AEEA2-(γ-Glu)-CO-(CH2)12-CO2H), C-terminal NH2
B11: Example 64 (peptide)
peptide: YXEGTXTSDXSIXLDXKAQXEXIXXLIEGGKSSGAPPPS
modifications: Aib2, αMeF(2F)6, 4Pal10, αMeL13, Orn16, Aib20, 3FPhe22, D-Glu24, αMeY25, K17 and K31: K(AEEA2-(γ-Glu)-CO-(CH2)12-CO2H), C-terminal NH2
B12: Example 38 (peptide)
peptide: YXEGTXTSDXSIXLDXKAQXEFIXXLIEGGKSSGAPPPS
modifications: Aib2, αMeF(2F)6, 4Pal10, αMeL13, Orn16, Aib20, D-Glu24, αMeY25, K17 and K31: K((εK)-(γ-Glu)-CO-(CH2)12-CO2H), C-terminal NH2
B13: Example 44 (peptide)
peptide: YXEGTXTSDXSIXLDXKAQXEFIXXLIEGGKSSGAPPPS
modifications: Aib2, αMeF6, 4Pal10, αMeL13, Orn16, Aib20, D-Glu24, αMeY25, K17 and K31: K(AEEA2-(γ-Glu)-CO-(CH2)12-CO2H), C-terminal NH2
B14: Example 40 (peptide)
peptide: YXEGTXTSDXSIXLDXKAQXEFIXXLIEGGKSSGAPPPS
modifications: Aib2, αMeF(2F)6, 4Pal10, αMeL13, Orn16, Aib20, D-Glu24, αMeY25, K17 and K31: K((εK)-(εK)-(γ-Glu)-CO-(CH2)12-CO2H), C-terminal NH2
B15: Example 34 (peptide)
peptide: YXEGTXTSDXSIXLDXKAQXEFIXXLIEGGKSSGAPPPS
modifications: Aib2, αMeF(2F)6, 4Pal10, αMeL13, Orn16, Aib20, D-Glu24, αMeY25, K17 and K31: K(AEEA2-(εK)-(γ-Glu)-CO-(CH2)12-CO2H), C-terminal NH2
B16: Example 37 (peptide)
peptide: YXEGTXTSDXSIXLDXKAQXEFIXXLIEGGKSSGAPPPS
modifications: Aib2, αMeF(2F)6, 4Pal10, αMeL13, Orn16, Aib20, D-Glu24, αMeY25, K17 and K31: K((εK)-AEEA2-(γ-Glu)-CO-(CH2)12-CO2H), C-terminal NH2
B17: Example 48 (peptide)
peptide: YXEGTXTSDXSIXLDXKAQXEFIXXLIEGGKSSGAPPPS
modifications: Aib2, αMeF6, 4Pal10, αMeL13, Orn16, Aib20, D-Glu24, αMeF25, K17 and K31: K(AEEA2-(γ-Glu)-CO-(CH2)12-CO2H), C-terminal NH2
B18: Example 60 (peptide)
peptide: YXEGTXTSDXSIXLDXKAQXEFIXXLIEGGKSSGAPPPS
modifications: Aib2, αMeF(2F)6, Nle10, αMeL13, Orn16, Aib20, D-Glu24, αMeY25, K17 and K31: K(AEEA2-(γ-Glu)-CO-(CH2)12-CO2H), C-terminal NH2
B19: Example 65 (peptide)
peptide: YXEGTXTSDXSIXLDXKAQXEXIXXLIEGGKSSGAPPPS
modifications: Aib2, αMeF(2F)6, 4Pal10, αMeL13, Orn16, Aib20, 3,5FPhe22, D-Glu24, αMeY25, K17 and K31: K(AEEA2-(γ-Glu)-CO-(CH2)12-CO2H), C-terminal NH2
B20: Example 39 (peptide)
peptide: YXEGTXTSDXSIXLDXKAQXEFIXXLIEGGKSSGAPPPS
modifications: Aib2, αMeF(2F)6, 4Pal10, αMeL13, Orn16, Aib20, D-Glu24, αMeY25, K17 and K31: K((εK)-(γ-Glu)-(γ-Glu)-CO-(CH2)12-CO2H), C-terminal NH2

How the values were obtained:
Test in all cases: cell-based or functional assay
human GIP receptor = target: T1, human GIP receptor
human glucagon receptor = human glucagon receptor (human, UniProt P47871 26-477)
human GLP-1 receptor = human GLP-1 receptor (human, UniProt P43220 24-463)

| Binder | EC50, cAMP (human GIP receptor) [nM] | Emax, cAMP (human GIP receptor) [%] | EC50, cAMP (human glucagon receptor) [nM] | EC50, cAMP (human GLP-1 receptor) [nM] | Emax, cAMP (human GLP-1 receptor) [%] |
| --- | --- | --- | --- | --- | --- |
| B1 | 0.0138 | 90.3 | > 9950 | 0.205 | – |
| B2 | 0.0138 | – | > 9950 | 1.94 | 87.1 |
| B3 | 0.0162 | – | > 9950 | 0.612 | – |
| B4 | 0.0168 | – | > 9950 | 0.355 | – |
| B5 | 0.0205 | 91 | > 9950 | 0.398 | 97.3 |
| B6 | 0.0176 | – | > 9950 | 1.86 | 90.6 |
| B7 | 0.00327 | – | > 9950 | 0.00676 | – |
| B8 | 0.0158 | 89.2 | > 9950 | 0.194 | – |
| B9 | 0.0207 | – | > 9950 | 0.154 | – |
| B10 | 0.0675 | 113 | > 9950 | 0.538 | – |
| B11 | 0.0158 | – | > 9950 | 0.557 | 97.3 |
| B12 | 0.0155 | – | > 9950 | 0.225 | – |
| B13 | 0.0637 | – | > 9950 | 4.77 | – |
| B14 | 0.0116 | – | > 9950 | 0.279 | – |
| B15 | 0.0148 | – | > 9950 | 1 | – |
| B16 | 0.0211 | – | > 9950 | 0.909 | – |
| B17 | 0.0182 | – | > 9950 | 1 | – |
| B18 | 0.0126 | – | > 9950 | 0.19 | – |
| B19 | 0.0139 | – | > 9950 | 0.3 | – |
| B20 | 0.0238 | – | > 9950 | 0.358 | – |
